Numbering of substitutions follows the chain as printed. Names and notes keep the numbering of the source. “Also recorded” adds a separate entry of the source.
Test: SPR membrane binding to POPC/POPS/PI(4,5)P2 vesicles
Conditions: for affinity for POPC/POPS/PI(4,5)P2 (77:20:3) relative to WT: in words; for Kd: L1 chip, 23 °C, 20 mM Tris, pH 7.4, 0.16 M NaCl, average ±S.D., n = 3, read-out: Kd for lipid binding, PC/PS/PI(4,5)P2; for PI(4,5)P2 selectivity over POPC/POPS (80:20) / binding to POPC/POPS/PI(4,5)P2 (77:20:3): RU/RUmax
From the text: It has been generally thought that Smad2 and Smad3 are targeted to the activated TGF-β signaling complex by direct interaction with TβRI ([1], [2]) or via SARA ([7]). However, it has been shown that many cytosolic proteins that are targeted to membrane proteins or membrane-anchored signaling complexes have affinity for membrane lipids ([14]), phosphoinositides (PtdInsPs) in particular, and that their membrane recruitment is mediated by coincident lipid–protein and protein–protein interactions ([15], [16]). For most of these proteins, their PtdInsP specificity directs their membrane targeting behaviors: e.g., PI(4,5)P2-specific proteins are recruited to PM where the highest concentration of PI(4,5)P2 is found, whereas PI(3)P-specific proteins are targeted to PI(3)P-rich EEs ([17], [18]). To resolve uncertainty about the functional location of the activated TGF-β signaling complex, we thus explored the possibility that lipid-binding activity of Smad2 may play a role in specific targeting of Smad2 to the active TGF-β receptor complex either at the PM or at EEs. Lipid-binding activity of Smad proteins has not been reported to date. We thus measured the binding of bacterially expressed Smad2 to large unilamellar vesicles (LUVs) containing various lipids by surface plasmon resonance (SPR) analysis ([19], [20]). Lipid selectivity determined by SPR analysis is typically reported as the relative resonance unit (RU) values for different lipids at a given protein concentration ([21], [22]). Although simple and intuitive, this type of analysis can sometimes yield misleading and erroneous results because some proteins show widely different RU values when bound to different lipid surfaces. Thus, a more reliable parameter that represents the fraction of the membrane bound protein molecules at a given protein concentration would be a normalized value of RU/RUmax where RUmax indicates the maximal RU value when a given lipid surface is saturated with the protein molecules. We thus estimated RUmax for different lipid species by employing the highest protein concentration experimentally feasible (e.g., 1 μM) and determined RU/RUmax for different lipids at the protein concentration that allows robust comparison (e.g., 100 nM). Once the lipid selectivity has been determined by this semiquantitative approach, we then rigorously determined and compared Kd values for selected lipids for more accurate quantitative determination of lipid selectivity.
Figure 1 Membrane-binding properties of Smad2 FL protein and MH2 domain determined by SPR analysis.A, PtdInsP selectivity of Smad2-FL determined using POPC/POPS/PtdInsP (77:20:3 in mole ratio) LUVs coated on the L1 sensor chip. The protein concentration was 100 nM. PIP3 indicates PI(3,4,5)P3. B, determination of Kd for binding of Smad2 FL to different LUVs. The protein concentration was varied from 0 to 500 nM. C, PI(4,5)P2 concentration dependence of membrane binding of Smad2-FL determined using POPC/POPS/PI(4,5)P2 (77-x:20:x, x = 0–5 mol%) LUVs. The protein concentration was 100 nM. D, PtdInsP selectivity of the Smad2 MH2 domain determined using POPC/POPS/PtdInsP (77:20:3 in mole ratio) LUVs. The protein concentration was 100 nM. Normalized RU values (RU/RUmax) were used for all figures but (C) for more accurate determination of PtdInsP selectivity. RUmax values determined for different vesicles at 1 μM Smad2 were: 280 ± 20 for POPC/POPS/PI(4,5)P2 (77:20:3), 370 ± 10 for POPC/POPS/PI(3,4)P2 (77:20:3), 400 ± 15 for POPC/POPS/PI(3,4,5)P3 (or PIP3) (77:20:3), 400 ± 20 for POPC/POPS/PI(3)P (77:20:3), and 380 ± 20 for POPC/POPS (80:20). Only the association phases of the sensorgrams are shown and used for further analysis. Each set of sensorgrams shown in A and D are representatives of >5 independent measurements. Data points shown in B and C are the average ±S.D. values from triplicate measurements. […]

[1] = SPR, POPC/POPS/PI(4,5)P2 (77:20:3)

B1: Smad2-W422A: W422A mutant of full-length Smad2; specific PI(4,5)P2 binding-compromised (protein)
chain: MSSILPFTPPVVKRLLGWKKSAGGSGGAGGGEQNGQEEKWCEKAVKSLVKKLKKTGRLDELEKAITTQNCNTKCVTIPSTCSEIWGLSTANTVDQWDTTGLYSFSEQTRSLDGRLQVSHRKGLPHVIYCRLWRWPDLHSHHELKAIENCEYAFNLKKDEVCVNPYHYQRVETPVLPPVLVPRHTEILTELPPLDDYTHSIPENTNFPAGIEPQSNYIPETPPPGYISEDGETSDQQLNQSMDTGSPAELSPTTLSPVNHSLDLQPVTYSEPAFWCSIAYYELNQRVGETFHASQPSLTVDGFTDPSNSERFCLGLLSNVNRNATVEMTRRHIGRGVRLYYIGGEVFAECLSDSAIFVQSPNCNQRYGWHPATVCKIPPGCNLKIFNNQEFAALLAQSVNQGFEAVYQLTRMCTIRMSFVKGAGAEYRRQTVTSTPCWIELHLNGPLQWLDKVLTQMGSPSVRCSSMS
modifications: left off: His6, N-terminal, state not stated
- affinity for POPC/POPS/PI(4,5)P2 (77:20:3) relative to WT (SPR, Kd comparison): three- to five-fold lower affinity
- Kd [1]: 470 ± 96 nM
- PI(4,5)P2 selectivity over POPC/POPS (80:20) (SPR, 100 nM protein): essentially no PI(4,5)P2 selectivity; also recorded: lost the PI(4,5)P2 selectivity
- binding to POPC/POPS/PI(4,5)P2 (77:20:3) (SPR, 100 nM protein): greatly reduced binding

B2: Smad2-K420A: K420A mutant of full-length Smad2; predominantly TβRI binding-compromised (protein)
chain: B1 chain with K420A, A422W
modifications: left off: His6, N-terminal, state not stated
- Kd [1]: 120 ± 12 nM
- binding to POPC/POPS/PI(4,5)P2 (77:20:3) (SPR, 100 nM protein): modestly and similarly reduced binding to both vesicles
- lower affinity for POPC/POPS/PI(4,5)P2 (77:20:3) than WT (SPR, decrease in affinity vs WT): 20%

B3: Smad2-Y426A: Y426A mutant of full-length Smad2; specific PI(4,5)P2 binding-compromised (protein)
chain: B1 chain with A422W, Y426A
modifications: left off: His6, N-terminal, state not stated
- affinity for POPC/POPS/PI(4,5)P2 (77:20:3) relative to WT (SPR, Kd comparison): three- to five-fold lower affinity
- Kd [1]: 400 ± 44 nM
- PI(4,5)P2 selectivity over POPC/POPS (80:20) (SPR, 100 nM protein): essentially no PI(4,5)P2 selectivity; also recorded: lost the PI(4,5)P2 selectivity
- binding to POPC/POPS/PI(4,5)P2 (77:20:3) (SPR, 100 nM protein): greatly reduced binding

B4: Smad2- R427A/R428A: double mutant of full-length Smad2; PI(4,5)P2 and TβRI binding-compromised (protein)
chain: B1 chain with A422W, R427A, R428A
modifications: left off: His6, N-terminal, state not stated
- affinity for POPC/POPS/PI(4,5)P2 (77:20:3) relative to WT (SPR, Kd comparison): three- to five-fold lower affinity
- Kd [1]: 340 ± 53 nM
- PI(4,5)P2 selectivity over POPC/POPS (80:20) (SPR, 100 nM protein): essentially no PI(4,5)P2 selectivity; also recorded: lost the PI(4,5)P2 selectivity
- binding to POPC/POPS/PI(4,5)P2 (77:20:3) (SPR, 100 nM protein): greatly reduced binding

B5: Smad2 WT: bacterially expressed full-length Smad2 wild-type (protein)
chain: B1 chain with A422W
modifications: left off: His6, N-terminal, state not stated
notes: bacterially expressed full-length Smad2 wild-type
- RUmax (POPC/POPS/PI(4,5)P2 (77:20:3), 1 μM Smad2): 280 ± 20
- affinity for PI(4,5)P2-containing vesicles relative to PI(3)P-containing ones (SPR, Kd comparison): twofold higher affinity
- increase in membrane affinity by 3 mol% PI(4,5)P2 over POPC/POPS (80:20) vesicles (SPR, Kd comparison): 5.6 fold
- Kd [1]: 100 ± 20 nM
- PI(4,5)P2 concentration dependence of membrane binding (SPR, POPC/POPS/PI(4,5)P2 (77-x:20:x, x = 0–5 mol%), 100 nM protein): dependent on the PI(4,5)P2 concentration

B6: Smad2-E425K: charge-reversal mutant of full-length Smad2; PI(4,5)P2 and TβRI binding-enhanced (protein)
chain: B1 chain with A422W, E425K
modifications: left off: His6, N-terminal, state not stated
- Kd [1]: 70 ± 7 nM
- PI(4,5)P2 selectivity over POPC/POPS (80:20) (SPR, 100 nM protein): retaining the PI(4,5)P2 selectivity of WT
- binding to POPC/POPS/PI(4,5)P2 (77:20:3) (SPR, 100 nM protein): modestly higher membrane binding than WT
- higher affinity for POPC/POPS/PI(4,5)P2 (77:20:3) than WT (SPR, increase in affinity vs WT): ~40%

— article PMC8567202, “Phosphoinositide-binding activity of Smad2 is essential for its function in TGF-β signaling” (The Journal of Biological Chemistry, 2021)
